From the supplement of paper PMC9112550, “Optimization of the antimicrobial peptide Bac7 by deep mutational scanning” (BMC Biology, 2022) come the findings set out here.

The series relates to Escherichia coli TOP10. Put plainly: shrunken log2 fold change of peptide-encoding DNA abundance (4.5 h post-induction vs induction); higher = less antimicrobial activity (less host growth inhibition). The note with it: time post-induction: 4.5 h; library: site-saturation at positions 5, 18, 19, 20.
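Note: peptides expressed intracellularly from a pBAD plasmid library in pooled LB shake-flask culture, induced with 0.3% L-arabinose, DNA abundance read by NGS, three biological replicates, DESeq2 with apeglm shrinkage.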

Take RRIRKRPPRLPRPRPRPCHNPRP: the “shrunken log2 fold change” value was -0.111.

As to RRIRLRPPRLPRPRPRPTQWPRP, the “shrunken log2 fold change” value amounted to 0.453.

Consider RRIRTRPPRLPRPRPRPCQNPRP, for which the “shrunken log2 fold change” value is 0.031.

With RRIRYRPPRLPRPRPRPLFGPRP, the “shrunken log2 fold change” value was -0.0957.

Consider RRIRQRPPRLPRPRPRPVHSPRP, for which the “shrunken log2 fold change” value is -0.0049.

Consider RRIRCRPPRLPRPRPRPRCCPRP, for which the “shrunken log2 fold change” value was -0.245.

Consider RRIRERPPRLPRPRPRPKFWPRP, for which the “shrunken log2 fold change” value is 0.375.

As for RRIRFRPPRLPRPRPRPPDTPRP, the “shrunken log2 fold change” value is 0.254.

On to RRIRQRPPRLPRPRPRPNIVPRP, for which the “shrunken log2 fold change” value is -0.044.

As for RRIRSRPPRLPRPRPRPRPIPRP, the “shrunken log2 fold change” value was -0.0533.

Regarding RRIRWRPPRLPRPRPRPPHKPRP, the “shrunken log2 fold change” value amounted to 0.339.

With RRIRCRPPRLPRPRPRPSQYPRP, the “shrunken log2 fold change” value is -0.471.

Turning to RRIRIRPPRLPRPRPRPAVMPRP, the “shrunken log2 fold change” value was -0.129.

In the case of RRIRKRPPRLPRPRPRPQEFPRP, the “shrunken log2 fold change” value was -0.0241.

With RRIRERPPRLPRPRPRPQLGPRP, the “shrunken log2 fold change” value worked out at 0.329.

RRIRRRPPRLPRPRPRPMLMPRP: the “shrunken log2 fold change” value amounted to 0.122.

Turning to RRIRRRPPRLPRPRPRPYIWPRP, the “shrunken log2 fold change” value is -0.335.

Regarding RRIRCRPPRLPRPRPRPRSRPRP, the “shrunken log2 fold change” value came to 0.299.

In the case of RRIRLRPPRLPRPRPRPWAFPRP, the “shrunken log2 fold change” value was determined as 0.00977.

Turning to RRIRYRPPRLPRPRPRPTPQPRP, the “shrunken log2 fold change” value amounted to 0.161.

As for RRIRWRPPRLPRPRPRPKESPRP, the “shrunken log2 fold change” value turned out to be 0.293.

On to RRIRQRPPRLPRPRPRPPTVPRP, for which the “shrunken log2 fold change” value is -0.225.

In the case of RRIRARPPRLPRPRPRPWMCPRP, the “shrunken log2 fold change” value is -0.12.

For RRIRSRPPRLPRPRPRPTNCPRP, the “shrunken log2 fold change” value came out at 0.0777.

Consider RRIRKRPPRLPRPRPRPAMYPRP, for which the “shrunken log2 fold change” value came to 0.256.

For RRIRMRPPRLPRPRPRPGGLPRP, the “shrunken log2 fold change” value was 0.818.

For RRIRWRPPRLPRPRPRPSCIPRP, the “shrunken log2 fold change” value was -0.261.

RRIRDRPPRLPRPRPRPPSLPRP: the “shrunken log2 fold change” value was -0.128.

On to RRIRHRPPRLPRPRPRPHPNPRP, for which the “shrunken log2 fold change” value is -0.063.

Regarding RRIRHRPPRLPRPRPRPWDDPRP, the “shrunken log2 fold change” value was -0.0102.

For RRIRHRPPRLPRPRPRPLGDPRP, the “shrunken log2 fold change” value is 0.146.

Take RRIRERPPRLPRPRPRPDFWPRP: the “shrunken log2 fold change” value amounted to 0.214.

RRIRTRPPRLPRPRPRPQFRPRP: the “shrunken log2 fold change” value was -0.132.

On to RRIRQRPPRLPRPRPRPAQSPRP, for which the “shrunken log2 fold change” value was 0.29.

Regarding RRIRDRPPRLPRPRPRPPPIPRP, the “shrunken log2 fold change” value came out at 0.45.

Regarding RRIRGRPPRLPRPRPRPLNYPRP, the “shrunken log2 fold change” value is 0.131.

On to RRIRWRPPRLPRPRPRPHKEPRP, for which the “shrunken log2 fold change” value is -0.0233.

For RRIRKRPPRLPRPRPRPVGVPRP, the “shrunken log2 fold change” value is 0.515.

For RRIRFRPPRLPRPRPRPTANPRP, the “shrunken log2 fold change” value was -0.0711.

With RRIRHRPPRLPRPRPRPVVWPRP, the “shrunken log2 fold change” value worked out at 0.524.

Regarding RRIRSRPPRLPRPRPRPYWQPRP, the “shrunken log2 fold change” value was -0.551.

Consider RRIRHRPPRLPRPRPRPDVRPRP, for which the “shrunken log2 fold change” value is -0.00783.

For the sequence RRIRWRPPRLPRPRPRPLIDPRP, the “shrunken log2 fold change” value is 0.00313.

Regarding RRIRKRPPRLPRPRPRPKCWPRP, the “shrunken log2 fold change” value turned out to be 0.382.

With RRIRMRPPRLPRPRPRPSGLPRP, the “shrunken log2 fold change” value stood at 0.0901.

For the sequence RRIRFRPPRLPRPRPRPQGKPRP, the “shrunken log2 fold change” value was -0.227.

With RRIRMRPPRLPRPRPRPKKHPRP, the “shrunken log2 fold change” value is 0.405.

For RRIRCRPPRLPRPRPRPNVIPRP, the “shrunken log2 fold change” value is -0.374.

For RRIRLRPPRLPRPRPRPFCYPRP, the “shrunken log2 fold change” value is -0.465.

As to RRIRCRPPRLPRPRPRPSNQPRP, the “shrunken log2 fold change” value is -0.414.

Regarding RRIRIRPPRLPRPRPRPACGPRP, the “shrunken log2 fold change” value worked out at 0.271.

For the sequence RRIRIRPPRLPRPRPRPAQFPRP, the “shrunken log2 fold change” value worked out at 0.0396.

In the case of RRIRPRPPRLPRPRPRPMYLPRP, the “shrunken log2 fold change” value was -0.257.

For RRIRHRPPRLPRPRPRPWSSPRP, the “shrunken log2 fold change” value was -0.116.

As to RRIRQRPPRLPRPRPRPDCSPRP, the “shrunken log2 fold change” value is 0.0489.

Turning to RRIRTRPPRLPRPRPRPHAEPRP, the “shrunken log2 fold change” value amounted to 0.17.

As to RRIRPRPPRLPRPRPRPRKRPRP, the “shrunken log2 fold change” value was 0.198.

With RRIRYRPPRLPRPRPRPPEDPRP, the “shrunken log2 fold change” value is -0.145.

In the case of RRIRLRPPRLPRPRPRPMSMPRP, the “shrunken log2 fold change” value came out at 0.125.

On to RRIRGRPPRLPRPRPRPFERPRP, for which the “shrunken log2 fold change” value is -0.012.

With RRIRNRPPRLPRPRPRPIQQPRP, the “shrunken log2 fold change” value is -0.000431.

On to RRIRSRPPRLPRPRPRPHIAPRP, for which the “shrunken log2 fold change” value was -0.255.

On to RRIRNRPPRLPRPRPRPFCDPRP, for which the “shrunken log2 fold change” value is -0.133.

With RRIRFRPPRLPRPRPRPQMWPRP, the “shrunken log2 fold change” value is -0.0128.

For RRIRPRPPRLPRPRPRPFAEPRP, the “shrunken log2 fold change” value came to 0.0204.

Consider RRIRHRPPRLPRPRPRPCFKPRP, for which the “shrunken log2 fold change” value was -1.25.

With RRIRNRPPRLPRPRPRPEHGPRP, the “shrunken log2 fold change” value was -0.0132.

Regarding RRIRARPPRLPRPRPRPIAEPRP, the “shrunken log2 fold change” value turned out to be 0.42.

For RRIRKRPPRLPRPRPRPYFKPRP, the “shrunken log2 fold change” value was -0.382.

On to RRIRSRPPRLPRPRPRPQPMPRP, for which the “shrunken log2 fold change” value was 0.128.

Regarding RRIRDRPPRLPRPRPRPYDSPRP, the “shrunken log2 fold change” value was -0.0305.

Consider RRIRARPPRLPRPRPRPQPSPRP, for which the “shrunken log2 fold change” value was found to be 0.555.

RRIRARPPRLPRPRPRPREDPRP: the “shrunken log2 fold change” value is 0.879.

For the sequence RRIRQRPPRLPRPRPRPWTLPRP, the “shrunken log2 fold change” value is -0.158.

For RRIRVRPPRLPRPRPRPYMDPRP, the “shrunken log2 fold change” value is -0.0331.

Take RRIRYRPPRLPRPRPRPGRWPRP: the “shrunken log2 fold change” value was 0.475.

RRIRGRPPRLPRPRPRPQKCPRP: the “shrunken log2 fold change” value came out at 0.122.

On to RRIRRRPPRLPRPRPRPHTHPRP, for which the “shrunken log2 fold change” value is -0.11.

RRIRMRPPRLPRPRPRPDEPPRP: the “shrunken log2 fold change” value came out at 2.72.

For the sequence RRIRQRPPRLPRPRPRPDPSPRP, the “shrunken log2 fold change” value was -0.132.

For the sequence RRIRQRPPRLPRPRPRPSKDPRP, the “shrunken log2 fold change” value is -0.462.

Take RRIRPRPPRLPRPRPRPGWKPRP: the “shrunken log2 fold change” value was determined as 0.269.

Take RRIRRRPPRLPRPRPRPILVPRP: the “shrunken log2 fold change” value was -0.106.

With RRIRFRPPRLPRPRPRPYLNPRP, the “shrunken log2 fold change” value is -0.454.

On to RRIRERPPRLPRPRPRPPPEPRP, for which the “shrunken log2 fold change” value came to 0.574.

As for RRIRQRPPRLPRPRPRPESSPRP, the “shrunken log2 fold change” value is -0.0458.

On to RRIRDRPPRLPRPRPRPPSKPRP, for which the “shrunken log2 fold change” value turned out to be 0.0904.

On to RRIRYRPPRLPRPRPRPYEHPRP, for which the “shrunken log2 fold change” value is -0.0505.

Regarding RRIRWRPPRLPRPRPRPVVDPRP, the “shrunken log2 fold change” value was 0.0903.

With RRIRDRPPRLPRPRPRPSEDPRP, the “shrunken log2 fold change” value was determined as 0.00101.

Take RRIRYRPPRLPRPRPRPMCTPRP: the “shrunken log2 fold change” value stood at 0.00658.

In the case of RRIRFRPPRLPRPRPRPIPSPRP, the “shrunken log2 fold change” value was -0.0572.

Turning to RRIRWRPPRLPRPRPRPNQAPRP, the “shrunken log2 fold change” value is -0.0796.

In the case of RRIRKRPPRLPRPRPRPDFPPRP, the “shrunken log2 fold change” value amounted to 0.416.

For RRIRTRPPRLPRPRPRPVCKPRP, the “shrunken log2 fold change” value was -0.0432.

Consider RRIRDRPPRLPRPRPRPYMKPRP, for which the “shrunken log2 fold change” value was -0.152.

Regarding RRIRHRPPRLPRPRPRPQKGPRP, the “shrunken log2 fold change” value was -0.0617.

Turning to RRIRARPPRLPRPRPRPSKLPRP, the “shrunken log2 fold change” value is -0.118.

Consider RRIRHRPPRLPRPRPRPTEDPRP, for which the “shrunken log2 fold change” value is -0.00383.

RRIRSRPPRLPRPRPRPQNMPRP: the “shrunken log2 fold change” value was -0.268.

With RRIRYRPPRLPRPRPRPMTHPRP, the “shrunken log2 fold change” value was -0.348.

Consider RRIRERPPRLPRPRPRPHVVPRP, for which the “shrunken log2 fold change” value is -0.162.

Turning to RRIRSRPPRLPRPRPRPGAVPRP, the “shrunken log2 fold change” value was determined as 0.324.

Regarding RRIRQRPPRLPRPRPRPPPRPRP, the “shrunken log2 fold change” value was found to be 1.25.

With RRIRGRPPRLPRPRPRPLTLPRP, the “shrunken log2 fold change” value was determined as 0.275.

Turning to RRIRVRPPRLPRPRPRPATMPRP, the “shrunken log2 fold change” value is -0.259.

Regarding RRIRCRPPRLPRPRPRPDIKPRP, the “shrunken log2 fold change” value is -0.336.

RRIRYRPPRLPRPRPRPDNTPRP: the “shrunken log2 fold change” value was -0.325.

RRIRCRPPRLPRPRPRPDRNPRP: the “shrunken log2 fold change” value is -0.397.

Take RRIRKRPPRLPRPRPRPPRQPRP: the “shrunken log2 fold change” value was 0.82.

For the sequence RRIRRRPPRLPRPRPRPWCNPRP, the “shrunken log2 fold change” value was -0.543.

With RRIRCRPPRLPRPRPRPEEYPRP, the “shrunken log2 fold change” value is -0.065.

For RRIRLRPPRLPRPRPRPKSKPRP, the “shrunken log2 fold change” value was -0.071.

RRIRCRPPRLPRPRPRPPPEPRP: the “shrunken log2 fold change” value stood at 1.32.

Turning to RRIRIRPPRLPRPRPRPGFLPRP, the “shrunken log2 fold change” value was -0.328.

RRIRLRPPRLPRPRPRPFEKPRP: the “shrunken log2 fold change” value is -0.0511.

In the case of RRIRERPPRLPRPRPRPTCCPRP, the “shrunken log2 fold change” value was -0.0839.

Take RRIRNRPPRLPRPRPRPLNMPRP: the “shrunken log2 fold change” value was -0.636.

Turning to RRIRIRPPRLPRPRPRPRGCPRP, the “shrunken log2 fold change” value came out at 0.255.

As for RRIRIRPPRLPRPRPRPLQGPRP, the “shrunken log2 fold change” value is -0.182.

RRIRLRPPRLPRPRPRPQNSPRP: the “shrunken log2 fold change” value was -0.767.

With RRIRHRPPRLPRPRPRPNGPPRP, the “shrunken log2 fold change” value was -0.0992.

RRIRNRPPRLPRPRPRPPSFPRP: the “shrunken log2 fold change” value is -0.0746.

Take RRIRDRPPRLPRPRPRPQAFPRP: the “shrunken log2 fold change” value is -0.184.

RRIRARPPRLPRPRPRPVMKPRP: the “shrunken log2 fold change” value was -0.205.
